{"source": "paper PMC6610666", "about": "(2019)", "molecular_target": "mouse CBP TAZ1 (residues 340-439) (mouse, UniProt P45481 340-439)", "sequence (P45481 340-439)": "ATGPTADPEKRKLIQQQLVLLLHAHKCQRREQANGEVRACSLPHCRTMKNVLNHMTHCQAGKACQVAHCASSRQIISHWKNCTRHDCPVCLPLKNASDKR", "test": "ITC", "data": [{"binder": "HDYIYNLDESEGVCDLFD (domain or fragment)", "note": "[human E2F4 transactivation domain (residues 390-407)]", "values": [{"measurement": "Kd", "result": 700, "unit": "nM"}]}]}
